This experiment deals with recombinant SARS-CoV-2 RBD-Fc (Severe acute respiratory syndrome …, UniProt P0DTC2). The experiment is described as follows: ELISA; natural RBD-Fc immobilised on ELISA plates. (In general: An ELISA detects its analyte on a solid surface through an enzyme-linked reagent.)

B1: MA1 monoclonal antibody (antibody, V domains shown)
VH: QVQLKESGPGLVAPSQSLSITCTVSGFSLSDYSISWIRQPPGKGLEWLGVIWGGGSTYYNSALKSRLSISKDNSKSQVFLKMNSLQTDDTAMYYCAKHPLYYGSNSDGYYAMDYWGQGTSVTVSS
VL: DIVMTQSHKFMSTSVGDRVSITCKASQDVGIVVAWYQQKPGQSPKLLIYWASTRHTGVPDRFTGSGSGTDFTLTISNVQSEDLADYFCQQYSSYPLTFGGGTKLEIK
notes: also called group I mAb; source: hybridoma cell line or transfection of linear expression cassettes
As to B1, the binding result is listed as “binds”.

B2: MA5 monoclonal antibody (antibody, V domains shown)
VH: EVMLVESGGGLVKPGGSLKLSCAASGFMFSRYAMSWVRQTPEKRLEWVATISSGGSYTYYPDSVKGRFTMSRDNAKNTLYLQMSSLRSEDTAMYNCARHDGNYVDYAMDYWGQGTSVTVSS
VL: QIVLTQSPAIMSASLGEEITLTCSASSSVSHMHWYQQKSGTSPKLLIYSTFNLASGVPSRFSGSGSGTFYSLTISSVEAEDAADYYCHQWSSWTFGGGTKLEIK
notes: also called group IV mAb; source: hybridoma cell line or transfection of linear expression cassettes
On to B2, for which the binding result is given as “binds”.

The values above are taken from article PMC8441738 (MedComm, 2021).
